Measurements from US12655441B2, “PPO polypeptides tolerant to PPO-inhibiting herbicides and use thereof” (QINGDAO KINGAGROOT CHEMICAL COMPOUND CO., LTD., priority 2021, dated 2026).

B1: BnPPO1-C5 WT: Amino-acid sequence of PPO1 wild-type from oilseed rape (protein)
chain: MDLSLLRPQPFLSPFSNPFPRSRPYKPPNLRCSVSGGSVVGGSSTIEGGRGGKTVAADCVIVGGGISGLCIAQALVTKHPDAAKSVMVTEAKDRVGGNIITREEQGFLWEEGPNSFQPSDPMLTMVVDSGLKDDLVLGDPTAPRFVLWNGKLRPVPSKLTDLPFFDLMSIGGKIRAGFGAIGIRPSPPGREESVEEFVRRNLGDEVFERLIEPFCSGVYAGDPAKLSMKAAFGKVWKLEENGGSIIGGAFKAIQARNKAPKTTRDPRLPKPKGQTVGSFRKGLTMLPDAISARLGDKVKVSWKLSSISKLPSGGYSLTYETPEGIVTVQSKSVVMTVPSHVASSLLRPLSDSAAEALSKLYYPPVAAVSISYPKEAIRSECLIDGELKGFGQLHPRTQKVETLGTIYSSSLFPNRAPPGRVLLLNYIGGATNTGILSKSEGELVEAVDRDLRKMLIKPSSTDPLVLGVKVWPQAIPQFLIGHIDLVDAAKASLSSSGHEGLFLGGNYVAGVALGRCVEGAYETATQVNDFMSRYAYK
modifications: Amino-acid sequence of PPO1 wild-type from oilseed rape (BnPPO1-C5)
B2: BnPPO1-C5 L424S/Y426I: Amino-acid sequence of PPO1 from oilseed rape mutant (protein)
chain: MDLSLLRPQPFLSPFSNPFPRSRPYKPPNLRCSVSGGSVVGGSSTIEGGRGGKTVAADCVIVGGGISGLCIAQALVTKHPDAAKSVMVTEAKDRVGGNIITREEQGFLWEEGPNSFQPSDPMLTMVVDSGLKDDLVLGDPTAPRFVLWNGKLRPVPSKLTDLPFFDLMSIGGKIRAGFGAIGIRPSPPGREESVEEFVRRNLGDEVFERLIEPFCSGVYAGDPAKLSMKAAFGKVWKLEENGGSIIGGAFKAIQARNKAPKTTRDPRLPKPKGQTVGSFRKGLTMLPDAISARLGDKVKVSWKLSSISKLPSGGYSLTYETPEGIVTVQSKSVVMTVPSHVASSLLRPLSDSAAEALSKLYYPPVAAVSISYPKEAIRSECLIDGELKGFGQLHPRTQKVETLGTIYSSSLFPNRAPPGRVLLSNIIGGATNTGILSKSEGELVEAVDRDLRKMLIKPSSTDPLVLGVKVWPQAIPQFLIGHIDLVDAAKASLSSSGHEGLFLGGNYVAGVALGRCVEGAYETATQVNDFMSRYAYK
modifications: Amino-acid sequence of PPO1 from oilseed rape mutant (BnPPO1-C5 L424S/Y426I)
B3: L424T/Y426V (protein)
chain: MVAATATATAMATAASPLLNGTRIPARLRHRGLSVRCAAVAGGAAEAPASTGARLSADCVVVGGGISGLCTAQALATRHGVGDVLVTEARARPGGNITTVERPEEGYLWEEGPNSFQPSDPVLTMAVDSGLKDDLVFGDPNAPRFVLWEGKLRPVPSKPADLPFFDLMSIPGKLRAGLGALGIRPPPPGREESVEEFVRRNLGAEVFERLIEPFCSGVYAGDPSKLSMKAAFGKVWRLEETGGSIIGGTIKTIQERSKNPKPPRDARLPKPKGQTVASFRKGLAMLPNAITSSLGSKVKLLWKLTSITKSDDKGYVLEYETPEGVVSVQAKSVIMTIPSYVASNILRPLSSDAADALSRFYYPPVAAVTVSYPKEAIRKECLIDGELQGFGQLHPRSQGVETLGTIYSSSLFPNRAPDGRVLLTNVIGGATNTGIVSKTESELVEAVDRDLRKMLINSTAVDPLVLGVRVWPQAIPQFLVGHLDLLEAAKAALDRGGYDGLFLGGNYVAGVALGRCVEGAYESASQISDFLTKYAYK
modifications: Amino-acid sequence of PPO1 from corn mutant (ZmPPO1 L424T/Y426V)
B4: ZmPPO1 WT: Amino-acid sequence of PPO1 from wild-type corn (protein)
chain: MVAATATATAMATAASPLLNGTRIPARLRHRGLSVRCAAVAGGAAEAPASTGARLSADCVVVGGGISGLCTAQALATRHGVGDVLVTEARARPGGNITTVERPEEGYLWEEGPNSFQPSDPVLTMAVDSGLKDDLVFGDPNAPRFVLWEGKLRPVPSKPADLPFFDLMSIPGKLRAGLGALGIRPPPPGREESVEEFVRRNLGAEVFERLIEPFCSGVYAGDPSKLSMKAAFGKVWRLEETGGSIIGGTIKTIQERSKNPKPPRDARLPKPKGQTVASFRKGLAMLPNAITSSLGSKVKLLWKLTSITKSDDKGYVLEYETPEGVVSVQAKSVIMTIPSYVASNILRPLSSDAADALSRFYYPPVAAVTVSYPKEAIRKECLIDGELQGFGQLHPRSQGVETLGTIYSSSLFPNRAPDGRVLLLNYIGGATNTGIVSKTESELVEAVDRDLRKMLINSTAVDPLVLGVRVWPQAIPQFLVGHLDLLEAAKAALDRGGYDGLFLGGNYVAGVALGRCVEGAYESASQISDFLTKYAYK
modifications: Amino-acid sequence of PPO1 from wild-type corn (ZmPPO1 WT)
B5: GmPPO1 WT: Amino-acid sequence of PPO1 from wild-type soybean (protein)
chain: MVSVFNEILFPPNQTLLRPSLHSPTSFFTSPTRKFPRSRPNPILRCSIAEESTASPPKTRDSAPVDCVVVGGGVSGLCIAQALATKHANANVVVTEARDRVGGNITTMERDGYLWEEGPNSFQPSDPMLTMVVDSGLKDELVLGDPDAPRFVLWNRKLRPVPGKLTDLPFFDLMSIGGKIRAGFGALGIRPPPPGHEESVEEFVRRNLGDEVFERLIEPFCSGVYAGDPSKLSMKAAFGKVWKLEKNGGSIIGGTFKAIQERNGASKPPRDPRLPKPKGQTVGSFRKGLTMLPDAISARLGNKVKLSWKLSSISKLDSGEYSLTYETPEGVVSLQCKTVVLTIPSYVASTLLRPLSAAAADALSKFYYPPVAAVSISYPKEAIRSECLIDGELKGFGQLHPRSQGVETLGTIYSSSLFPNRAPPGRVLLLNYIGGATNTGILSKTDSELVETVDRDLRKILINPNAQDPFVVGVRLWPQAIPQFLVGHLDLLDVAKASIRNTGFEGLFLGGNYVSGVALGRCVEGAYEVAAEVNDFLTNRVYK
modifications: Amino-acid sequence of PPO1 from wild-type soybean (GmPPO1)
B6: GmPPO1 L430S/Y432I: Amino-acid sequence of PPO1 from soybean mutant (protein)
chain: MVSVFNEILFPPNQTLLRPSLHSPTSFFTSPTRKFPRSRPNPILRCSIAEESTASPPKTRDSAPVDCVVVGGGVSGLCIAQALATKHANANVVVTEARDRVGGNITTMERDGYLWEEGPNSFQPSDPMLTMVVDSGLKDELVLGDPDAPRFVLWNRKLRPVPGKLTDLPFFDLMSIGGKIRAGFGALGIRPPPPGHEESVEEFVRRNLGDEVFERLIEPFCSGVYAGDPSKLSMKAAFGKVWKLEKNGGSIIGGTFKAIQERNGASKPPRDPRLPKPKGQTVGSFRKGLTMLPDAISARLGNKVKLSWKLSSISKLDSGEYSLTYETPEGVVSLQCKTVVLTIPSYVASTLLRPLSAAAADALSKFYYPPVAAVSISYPKEAIRSECLIDGELKGFGQLHPRSQGVETLGTIYSSSLFPNRAPPGRVLLSNIIGGATNTGILSKTDSELVETVDRDLRKILINPNAQDPFVVGVRLWPQAIPQFLVGHLDLLDVAKASIRNTGFEGLFLGGNYVSGVALGRCVEGAYEVAAEVNDFLTNRVYK
modifications: Amino-acid sequence of PPO1 from soybean mutant (GmPPO1 L430S/Y432I)

Key:
[1] = tested on: Arabidopsis thaliana; test: Herbicide resistance test of Arabidopsis thaliana seeds overexpressing crop PPO1 WT or mutant on MS medium; format: in vivo; details: overexpressed in Arabidopsis thaliana seed; for tolerance to compound A compared with wild-type Arabidopsis thaliana / tolerance to compound A compared with the overexpressed wild-type PPO1: different concentrations of compound A; for tolerance to flumioxazin compared with wild-type Arabidopsis thaliana / tolerance to flumioxazin compared with the overexpressed wild-type PPO1: different concentrations of flumioxazin; for tolerance to saflufenacil compared with wild-type Arabidopsis thaliana / tolerance to saflufenacil compared with the overexpressed wild-type PPO1: different concentrations of saflufenacil
Method: 1) Sowing: plump and vernalized wild-type Arabidopsis thaliana seeds were selected, treated with 75% alcohol for 1 minute, disinfected with 10% NaClO for 6 minutes, and washed with sterile water for 5 to 6 times. After the sterilization was completed, the seeds were placed on a MS medium plate for one week, then transplanted to sterilized nutrient soil (nutrient soil:vermiculite=1:1) and cultured in a greenhouse at (25±2) ° C. with a photoperiod of 16 h/8 h (light/dark).
4) Infestation of Arabidopsis thaliana inflorescences: the uninfected Arabidopsis thaliana with good growth state and lush inflorescences were selected for infection and their fruit pods were cut off from the plants by scissors prior to transformation. The Arabidopsis thaliana inflorescences were dipped in the prepared infection solution for 0.5 to 1 minute. Then the infected Arabidopsis thaliana seedlings were placed in dark and humid conditions for 24 hours. After one week, the infection was repeated.
After the transformation of dipped Arabidopsis thaliana inflorescences, Arabidopsis thaliana TO-generation seeds were collected and sowed on a resistant MS plate containing 30 mg/L hygromycin to screen positive plants.
The obtained overexpressed mutant and wild-type Arabidopsis thaliana seeds of different crops were tested for resistance on a MS medium (petri dish) containing different concentrations of PPO-inhibiting herbicidal compounds, as shown in FIG. 12-23.

[2] = tested on: PPO-deficient Escherichia coli (ΔhemG); test: PPO-deficient E. coli (ΔhemG) transformed by corn ZmPPO1 mutant genes, growth on LB medium containing compound A; format: cell-based; details: compound A 5 μM
Method: To verify whether the mutation of the PPO1-conserved protein motif LLLNYI in other plants could also confer resistance to herbicides, the mutation combination of leucine residues at the third position and tyrosine residues at the fifth position in the protein motif LLLNYI was carried out by using the same method as described in the above examples and screened by using of the LB medium containing herbicidal compound A, and the growth inhibition was observed.

Row | Molecule | tolerance to compound A compared with wild-type Arabidopsis thaliana [1] | tolerance to flumioxazin compared with wild-type Arabidopsis thaliana [1] | tolerance to saflufenacil compared with wild-type Arabidopsis thaliana [1] | tolerance to compound A compared with the overexpressed wild-type PPO1 [1] | tolerance to flumioxazin compared with the overexpressed wild-type PPO1 [1] | tolerance to saflufenacil compared with the overexpressed wild-type PPO1 [1] | growth of ΔhemG transformant on plates containing compound A, compared with ZmPPO1-WT [2]
1 | B1 | certain level of tolerance | certain level of tolerance | certain level of tolerance | – | – | – | –
2 | B2 | certain level of tolerance | certain level of tolerance | certain level of tolerance | much higher | much higher | much higher | –
3 | B3 | – | – | – | – | – | – | grew normally without an inhibition
4 | B4 | certain level of tolerance | certain level of tolerance | certain level of tolerance | – | – | – | –
5 | B5 | certain level of tolerance | certain level of tolerance | certain level of tolerance | – | – | – | –
6 | B6 | certain level of tolerance | certain level of tolerance | certain level of tolerance | much higher | much higher | much higher | –
